From patent publication US20250289869

Legend:
[1] = test system: FVIII169/VWF059 heterodimer
[2] = test system: FVIII169/VWF057 heterodimer
Sequence of FVIII169/VWF057 heterodimer (chain, as listed by the source, chain 1 of 2): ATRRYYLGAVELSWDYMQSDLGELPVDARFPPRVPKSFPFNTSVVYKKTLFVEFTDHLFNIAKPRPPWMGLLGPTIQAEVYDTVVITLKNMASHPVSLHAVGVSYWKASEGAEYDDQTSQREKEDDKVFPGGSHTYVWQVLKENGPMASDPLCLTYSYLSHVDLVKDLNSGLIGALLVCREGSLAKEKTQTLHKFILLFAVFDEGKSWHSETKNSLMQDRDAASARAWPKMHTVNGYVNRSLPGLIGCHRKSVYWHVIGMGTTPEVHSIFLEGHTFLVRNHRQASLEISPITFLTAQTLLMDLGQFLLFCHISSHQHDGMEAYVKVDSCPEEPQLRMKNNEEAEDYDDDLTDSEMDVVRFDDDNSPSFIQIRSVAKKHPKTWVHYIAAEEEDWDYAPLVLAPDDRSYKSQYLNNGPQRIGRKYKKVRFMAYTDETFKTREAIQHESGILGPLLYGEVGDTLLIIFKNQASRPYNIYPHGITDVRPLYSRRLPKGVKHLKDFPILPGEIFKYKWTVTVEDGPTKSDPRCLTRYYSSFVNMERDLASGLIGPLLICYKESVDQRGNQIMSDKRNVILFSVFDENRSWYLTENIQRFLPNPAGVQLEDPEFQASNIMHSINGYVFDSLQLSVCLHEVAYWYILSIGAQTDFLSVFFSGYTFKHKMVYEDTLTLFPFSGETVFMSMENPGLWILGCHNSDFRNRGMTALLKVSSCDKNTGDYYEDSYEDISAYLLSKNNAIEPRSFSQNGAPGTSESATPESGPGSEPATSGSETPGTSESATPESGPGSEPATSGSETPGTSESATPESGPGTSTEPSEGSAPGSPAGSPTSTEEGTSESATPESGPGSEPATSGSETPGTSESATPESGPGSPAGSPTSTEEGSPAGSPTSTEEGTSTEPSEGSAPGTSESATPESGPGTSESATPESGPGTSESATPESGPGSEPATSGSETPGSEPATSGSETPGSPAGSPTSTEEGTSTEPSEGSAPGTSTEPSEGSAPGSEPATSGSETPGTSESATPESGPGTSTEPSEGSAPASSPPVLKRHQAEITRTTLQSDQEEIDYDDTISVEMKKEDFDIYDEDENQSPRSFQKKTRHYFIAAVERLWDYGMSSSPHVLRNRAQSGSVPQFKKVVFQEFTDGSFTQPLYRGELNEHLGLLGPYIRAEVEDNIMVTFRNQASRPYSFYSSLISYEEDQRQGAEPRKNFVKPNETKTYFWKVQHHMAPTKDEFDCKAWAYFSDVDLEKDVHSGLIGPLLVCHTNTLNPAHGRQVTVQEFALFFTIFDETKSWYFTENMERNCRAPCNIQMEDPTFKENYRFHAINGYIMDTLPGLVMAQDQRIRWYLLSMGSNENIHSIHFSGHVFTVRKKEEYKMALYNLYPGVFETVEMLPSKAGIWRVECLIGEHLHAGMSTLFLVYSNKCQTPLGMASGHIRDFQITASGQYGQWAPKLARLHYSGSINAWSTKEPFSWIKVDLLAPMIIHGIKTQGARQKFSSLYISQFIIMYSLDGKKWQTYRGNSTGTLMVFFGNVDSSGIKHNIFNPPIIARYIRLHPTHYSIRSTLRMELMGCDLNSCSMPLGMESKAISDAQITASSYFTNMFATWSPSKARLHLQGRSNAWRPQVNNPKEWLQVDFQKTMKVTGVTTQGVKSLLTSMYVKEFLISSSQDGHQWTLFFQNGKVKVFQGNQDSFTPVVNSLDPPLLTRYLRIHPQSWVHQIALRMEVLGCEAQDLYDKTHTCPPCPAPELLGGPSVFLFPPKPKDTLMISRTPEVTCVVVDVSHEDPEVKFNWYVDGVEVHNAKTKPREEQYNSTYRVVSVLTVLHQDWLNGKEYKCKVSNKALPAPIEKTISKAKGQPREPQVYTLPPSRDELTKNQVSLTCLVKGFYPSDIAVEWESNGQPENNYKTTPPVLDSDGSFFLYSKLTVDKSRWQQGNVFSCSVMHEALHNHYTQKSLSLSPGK
Sequence of FVIII169/VWF057 heterodimer (chain, as listed by the source, chain 2 of 2): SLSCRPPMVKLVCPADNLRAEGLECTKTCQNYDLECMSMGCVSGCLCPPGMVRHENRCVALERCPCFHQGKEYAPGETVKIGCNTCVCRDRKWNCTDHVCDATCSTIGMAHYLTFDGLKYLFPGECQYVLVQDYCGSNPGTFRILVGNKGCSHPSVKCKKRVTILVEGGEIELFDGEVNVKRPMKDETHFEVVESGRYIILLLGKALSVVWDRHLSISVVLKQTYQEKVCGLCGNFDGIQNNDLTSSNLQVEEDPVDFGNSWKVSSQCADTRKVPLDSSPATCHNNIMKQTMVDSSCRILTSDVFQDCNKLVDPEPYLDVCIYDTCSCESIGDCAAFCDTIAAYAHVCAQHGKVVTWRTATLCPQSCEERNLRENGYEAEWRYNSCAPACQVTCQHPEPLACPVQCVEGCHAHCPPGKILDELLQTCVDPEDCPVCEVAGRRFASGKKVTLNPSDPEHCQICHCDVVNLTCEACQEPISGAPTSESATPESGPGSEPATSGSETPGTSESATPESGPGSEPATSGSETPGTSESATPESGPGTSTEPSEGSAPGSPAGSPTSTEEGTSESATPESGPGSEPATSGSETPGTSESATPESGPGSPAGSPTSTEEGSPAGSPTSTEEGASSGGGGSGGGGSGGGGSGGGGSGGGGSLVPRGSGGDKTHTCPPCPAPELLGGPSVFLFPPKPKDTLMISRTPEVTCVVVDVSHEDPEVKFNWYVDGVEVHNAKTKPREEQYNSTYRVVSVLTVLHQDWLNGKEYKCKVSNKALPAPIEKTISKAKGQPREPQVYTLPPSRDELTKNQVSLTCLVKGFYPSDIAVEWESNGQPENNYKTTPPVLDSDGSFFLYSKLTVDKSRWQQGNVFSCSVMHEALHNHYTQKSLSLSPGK

Sequence of FVIII169/VWF059 heterodimer (chain, as listed by the source, chain 1 of 2): as the sequence (chain, as listed by the source, chain 1 of 2) above
Sequence of FVIII169/VWF059 heterodimer (chain, as listed by the source, chain 2 of 2): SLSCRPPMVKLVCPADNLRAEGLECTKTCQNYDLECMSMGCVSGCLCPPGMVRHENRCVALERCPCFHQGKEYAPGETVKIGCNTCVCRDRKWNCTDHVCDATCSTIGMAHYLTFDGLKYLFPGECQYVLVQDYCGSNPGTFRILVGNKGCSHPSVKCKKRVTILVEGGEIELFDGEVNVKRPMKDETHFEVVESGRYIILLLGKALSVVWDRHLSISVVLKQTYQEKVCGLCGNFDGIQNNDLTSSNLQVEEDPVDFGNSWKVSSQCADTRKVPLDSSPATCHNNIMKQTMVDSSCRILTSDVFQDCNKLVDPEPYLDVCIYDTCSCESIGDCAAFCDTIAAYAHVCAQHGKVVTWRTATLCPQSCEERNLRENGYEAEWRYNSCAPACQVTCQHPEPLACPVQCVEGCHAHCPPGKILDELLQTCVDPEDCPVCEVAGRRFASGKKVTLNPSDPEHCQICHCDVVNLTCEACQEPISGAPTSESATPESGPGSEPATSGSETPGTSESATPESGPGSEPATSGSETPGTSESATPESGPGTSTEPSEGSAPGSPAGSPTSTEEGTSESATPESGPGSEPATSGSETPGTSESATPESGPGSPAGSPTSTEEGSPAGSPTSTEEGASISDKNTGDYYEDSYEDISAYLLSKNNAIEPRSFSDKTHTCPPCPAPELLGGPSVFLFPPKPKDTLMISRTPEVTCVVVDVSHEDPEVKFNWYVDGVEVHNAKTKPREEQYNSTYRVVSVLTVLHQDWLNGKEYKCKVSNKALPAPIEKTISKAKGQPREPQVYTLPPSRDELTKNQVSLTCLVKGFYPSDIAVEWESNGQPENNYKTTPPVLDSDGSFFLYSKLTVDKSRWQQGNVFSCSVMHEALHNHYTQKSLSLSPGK

human α-thrombin
thrombin cleavage by mass spectroscopy (MS) [1]: By MS, FVIII 169/VWF059 again showed better release of D′D3 from Fc as compared to VWF057 | thrombin digestion, release of D′D3 from Fc (SDS-PAGE / western blot time course, FVIII:thrombin about 22:1, 37° C.) [1]: little to no detectable un-cleaved FVIII 169/VWF059 after 5 minutes | thrombin digestion, release of D′D3 from Fc (SDS-PAGE / western blot time course, FVIII:thrombin about 22:1, 37° C.) [2]: Un-cleaved FVIII169/VWF057 remained after 15 minutes
